{"source": "patent US7572594B2", "about": "“Screening assays for agonists or antagonists or receptor activator of NF-κB” (Immunex Corporation, priority 2000, dated 2009)", "molecules": {"B1": {"name": "wild type RANK: full-length human RANK, receptor activator of NF-κB (SEQ ID NO:2), expressed from vector or retrovirus (protein, listed as Homo sapiens)", "chain": "MAPRARRRRPLFALLLLCALLARLQVALQIAPPCTSEKHYEHLGRCCNKCEPGKYMSSKCTTTSDSVCLPCGPDEYLDSWNEEDKCLLHKVCDTGKALVAVVAGNSTTPRRCACTAGYHWSQDCECCRRNTECAPGLGAQHPLQLNKDTVCKPCLAGYFSDAFSSTDKCRPWTNCTFLGKRVEHHGTEKSDAVCSSSLPARKPPNEPHVYLPGLIILLLFASVALVAAIIFGVCYRKKGKALTANLWHWINEACGRLSGDKESSGDSCVSTHTANFGQQGACEGVLLLTLEEKTFPEDMCYPDQGGVCQGTCVGGGPYAQGEDARMLSLVSKTEIEEDSFRQMPTEDEYMDRPSQPTDQLLFLTEPGSKSTPPFSEPLEVGENDSLSQCFTGTQSTVGSESCNCTEPLCRTDWTPMSSENYLQKEVDSGHCPHWAASPSPNWADVCTGCRNPPGEDCEPLVGSPKRGPLPQCAYGMGLPPEEEASRTEARDQPEDGADGRLPSSARAGAGSGSSPGGQSPASGNVTGNSNSTFISSGQVMNFKGDIIVVYVSQTSQEGAAAAAEPMGRPVQEETLARRDSFAGNGPRFPDPCGGPEGLREPEKASRPVQEQGGAKA"}}, "key": {"[1]": {"tested_on": "primary hematopoietic cells from the RANK −/− mice", "assay": "F-actin ring formation, phalloidin staining", "format": "cell-based, mouse", "conditions": "5 days in 40 ng/ml CSF-1 and 200 ng/ml mRANK-L", "description": "To detect F-actin rings, cells are fixed, such as by exposure to 3% paraformaldehyde, and visualized by staining cells with a fluorescent probe that binds specifically with actin. A suitable fluorescent tag is phalloidin, which can be obtained from Molecular Probes, Eugene, Oreg. The fluorescent signal is detected, for example, using a standard fluorescent microscope, and the number of cells having F-actin rings is visually quantified. An F-actin ring is identified as a continuous ring of F-actin at the periphery of a cell, and these distinct structures are visible through a microscope.\nA procedure to detect F-actin rings was carried out as follows. Primary hematopoietic cells from the RANK −/− mice were infected with retroviral constructs encoding either the full-length human RANK cDNA or the RANK/TRAF6 binding mutant (RANK Δ340-421). Cells were cultured on LabTek Chamber slides with #1 borosilicate coverglasses (Nalge/Nunc). After incubation for 5 days in MEM containing 10% fetal bovine serum containing 40 ng/ml CSF-1 and 200 ng/ml mRANK-L. The media was aspirated, washed twice in PBS and then fixed in a solution of 3% paraformaldehyde for 10 minutes, followed by quenching in 50 mM NH4Cl. […] The fluorescent signal was detected using a standard fluorescent microscope, and F-actin rings were identified as continuous rings of F-actin at the periphery of individual cells."}, "[2]": {"tested_on": "spleen cells from RANK −/− mice", "assay": "CaPO4 resorption (pit formation) assay", "format": "cell-based, mouse", "conditions": "5 days in 40 ng/ml CSF-1 and 200 ng/ml mRANK-L on CaPO4 film; listed as full-length RANK", "description": "The resorption of CaPO4, upon which this assay is based, is considered to be a measure of osteoclast activity. Spleen cells were isolated from 3-6 week old RANK −/− mice and treated as described in Example 9 to remove cells expressing the CD3, Ter-119, and GR-1 antigens. Cells not expressing any of these antigens were harvested and infected as described in Example 9 with retroviral vector particles containing full-length or TRAF6 binding site deletion mutants of RANK.\nFollowing infection, the spleen cells were harvested and plated in MEM containing 10% fetal bovine serum containing 40 ng/ml CSF-1 and 200 ng/ml mRANK-L onto 16 well quartz slides coated with a thin film of CaPO4 (Osteologic, BD Biosystems). After 5 days in culture, the slides were washed, the cells removed by washing with bleach, and the slides washed again with buffer. […] The number of pits in the CaPO4 film is a measure of the extent to which the RANK-L induced the cells grown on that slide to differentiate into osteoclasts.\nIf desired, the CaPO4 film can be stained using a 0.5% solution of alizarin red for 4 to 5 minutes followed by washing in water. After staining, the resorptive lacunae are visualized by phase contrast microscopy as a clear area on a red background."}, "[3]": {"tested_on": "endogenous c-jun kinase (JNK)", "assay": "JNK immune-complex kinase assay in transfected 3T3 cells", "format": "cell-based, murine", "conditions": "3T3 cells 24 hours after transfection, absence of RANK-L stimulation", "description": "This example describes evaluating murine 3T3 cells transfected with plasmids containing DNA encoding human FEO RANK (SEQ ID NO:9), and murine 3T3 cells expressing recombinant DNA encoding human wild type RANK (SEQ ID NO:1) for their relative ability to activate endogenous c-jun kinase (JNK) in the absence of RANK-L stimulation. JNK is known to be activated as a consequence of RANK signal transduction.\nFor JNK assays, whole cell extracts were prepared from 3T3 cells 24 hours after transfection. Cells were lysed in a buffer containing 20 mM HEPES, pH 7.4, 2 mM EGTA, 50 mM β-glycerol phosphate, 1 mM DTT, 1 mM sodium orthovanadate, 1% Triton-X 100, 10% glycerol and the protease inhibitors leupeptin, pepstatin A, and PMSF. Clarified lysates were immunoprecipitated with 1 μg each anti-JNK (FL) and anti-JNK (C17) antibodies (both from Santa Cruz Biotechnology, Inc. Santa Cruz, Calif.). […] JNK activity was determined by an immune-complex assay using 1 μg of a fusion protein of glutathione-S-transferase and amino acids 1-169 of […] (GST-cJun (1-169)) (UBI, Lake Placid, N.Y.) and 5 μCi of [^32P]-ATP as substrate in 40 μl of assay buffer at 30° C. for 20 min. […]"}, "RANK": {"tested_on": "RANK", "assay": "radioimmune assay of reporter surface expression in 293/EBNA cells", "format": "cell-based", "conditions": "48 hours after transfection", "description": "Additionally, surface expression of human IL-2α receptor can be analyzed using a radioactive antibody against IL-2α receptor. For the mIL-4R-specific radioimmune assay, mouse anti-human IL-2α monoclonal antibody reactive with mIL-4R was labeled with ^125I via a Chloramine T conjugation method; the resulting specific activity is typically […]. After 48 hours, cells transfected with pGL2-MMP-9/human IL-2 receptor were washed once with media (DMEM, 12 5% FBS). Non-specific binding sites were blocked by the addition of pre-warmed binding media containing 5% non-fat dry milk and incubation at 37° C./5% CO2 in a tissue culture incubator for one hour. The blocking media was decanted and binding buffer containing ^125I anti-mIL-4R (clone M1; rat IgG1) was added to the cells and incubated with rocking at room temperature for 1 hour. After incubation of the cells with the radio-labeled antibody, cells were washed extensively with binding buffer (2 X) and twice with phosphate-buffered saline (PBS). Cells were lysed in 1 ml of 0.5M NaOH, and total radioactivity measured with a gamma counter."}}, "note": "Entries after “also recorded” stand apart in the source; their conditions may differ.", "data": [{"molecule": "B1", "values": [{"measurement": "cells with F-actin rings", "setting": "[1]", "result": "more than 50%"}, {"measurement": "CaPO4 resorption", "setting": "[2]", "result": "resorbed the CaPO4 matrix; also recorded: high levels of CaPO4 resorption"}, {"measurement": "activation of JNK", "setting": "[3]", "result": "not"}, {"measurement": "transcriptional activation, reporter detected on the cell surface", "setting": "RANK", "result": "resulted in transcription of muIL-4R"}]}]}
